Laboratory results: patent US20210017280A1 (EUREKA THERAPEUTICS, published 2021)

B1: phage clone 2 (anti-CD22 clone 2) (scFv, V domains shown)
VH: QVQLVESGGGLVQPGGSLRLSCAASGFTFSNYAMSWVRQAPGKGLEWVSSISGSGGSTYYADSVKGRFTISRDTSKNTLYLQMNSLRAEDTAVYYCARYGSAAWMDSWGQGTLVTVSS
VL: DIQLTQSPSSLSTSVGDRVTITCQASHDIRNYLNWYQQKPGKAPNLLIYAASNLQTGVPSRFSGRGSGTDFTLTISSLQPEDIATYYCQQYDGLPLTFGQGTRLEIKR
B2: phage clone 1 (anti-CD22 clone 1) (scFv, V domains shown)
VH: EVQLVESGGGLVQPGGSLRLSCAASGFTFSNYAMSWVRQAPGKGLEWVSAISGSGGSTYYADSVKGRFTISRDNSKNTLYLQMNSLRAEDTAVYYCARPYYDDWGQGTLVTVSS
VL: QSVVTQPPSVSAAPGQKVTISCSGSSSNIGNNYVSWYQQLPGTAPKLLIYENNKRPSGIPDRFSGSKSGTSATLGITGLQTGDEADYYCGTWDSSLSAGAVFGGGTKLTVLG

Tests used:
[1] = biological target: T1, domains 5-7 of CD22 conjugated to green fluorescent protein, expressed in Jurkat cells (human, UniProt P20273 414-687); test: flow cytometry, phage clone on cells
T1 construct: also called Jurkat-CD22 (D5-D7)-GFP; not shown: membrane anchor and green fluorescent protein (GFP) fusion
T1 sequence: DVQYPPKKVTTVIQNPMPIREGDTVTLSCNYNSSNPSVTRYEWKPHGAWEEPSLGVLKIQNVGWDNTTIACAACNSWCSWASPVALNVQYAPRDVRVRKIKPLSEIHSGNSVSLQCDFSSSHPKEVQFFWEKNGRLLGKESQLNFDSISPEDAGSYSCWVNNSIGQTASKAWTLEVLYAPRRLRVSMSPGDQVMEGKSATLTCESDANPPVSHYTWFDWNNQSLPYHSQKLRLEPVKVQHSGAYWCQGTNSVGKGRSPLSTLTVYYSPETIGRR

[2] = biological target: T2, full-length human CD22 (human, UniProt P20273 20-847); test: flow cytometry, phage clone on NALM-6 cells
T2 construct: CD22 on the cell surface: natural on Raji and NALM-6 cells, introduced in Jurkat cells (full-length) and in K562+CD22 cells; The K562 construct is not described further; also called Jurkat-CD22-full; CD22 on Raji, NALM-6 and K562+CD22 cells
T2 sequence: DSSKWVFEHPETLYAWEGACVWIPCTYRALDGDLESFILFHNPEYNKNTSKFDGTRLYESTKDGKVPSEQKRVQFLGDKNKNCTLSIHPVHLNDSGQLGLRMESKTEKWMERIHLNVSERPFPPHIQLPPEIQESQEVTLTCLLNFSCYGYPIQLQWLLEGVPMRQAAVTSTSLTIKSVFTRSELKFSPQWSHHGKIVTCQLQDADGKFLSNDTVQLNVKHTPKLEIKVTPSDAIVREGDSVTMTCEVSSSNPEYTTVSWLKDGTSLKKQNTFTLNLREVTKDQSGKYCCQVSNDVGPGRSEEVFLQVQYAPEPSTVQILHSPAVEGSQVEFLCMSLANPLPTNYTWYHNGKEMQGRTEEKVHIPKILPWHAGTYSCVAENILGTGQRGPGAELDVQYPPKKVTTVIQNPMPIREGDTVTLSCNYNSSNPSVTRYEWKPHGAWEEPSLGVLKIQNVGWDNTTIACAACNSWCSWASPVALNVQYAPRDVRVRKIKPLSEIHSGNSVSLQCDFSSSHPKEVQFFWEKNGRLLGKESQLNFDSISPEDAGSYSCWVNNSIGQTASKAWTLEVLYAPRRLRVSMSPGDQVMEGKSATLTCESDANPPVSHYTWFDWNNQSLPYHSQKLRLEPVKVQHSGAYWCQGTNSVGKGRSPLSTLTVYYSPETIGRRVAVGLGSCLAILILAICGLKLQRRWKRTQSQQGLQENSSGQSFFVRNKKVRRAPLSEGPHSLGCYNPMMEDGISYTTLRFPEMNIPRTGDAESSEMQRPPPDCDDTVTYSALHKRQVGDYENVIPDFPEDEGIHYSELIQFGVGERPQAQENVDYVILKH

[3] = biological target: T1, domains 5-7 of CD22 conjugated to green …; test: flow cytometry, phage clone on Jurkat cells expressing domains 5-7 of CD22-GFP
[4] = biological target: T2, full-length human CD22; test: flow cytometry, phage clone on Raji cells and Jurkat cells expressing full-length CD22

| Binder | binding result [1] | binding result [2] | binding result [3] | binding result [4] |
| --- | --- | --- | --- | --- |
| B1 | binds | binds |  |  |
| B2 |  |  | binds | binds |
